Measured values: patent publication US20100226974A1 (MITSUBISHI PHARMA, published 2010)

Molecular target: T1, human non-muscular myosin heavy chain type A (human, UniProt P35579 2-1960)
T1 construct: also called nmMHCA; human non-muscular myosin A chain
Experiment: flow cytometry, FITC-labeled antibody at 20 ug/ml on intact MKN45 cells, mean channel number of FL1
Description: Cultured cells of MKN45 or cells of a solid tumor (hereinafter referred to as “tumor cells”) formed by subcutaneous transplantation of MKN45 were allowed to react with the GAH antibody described in EP-A-520499 and EP-A-1174126, which had been labeled with fluorescein isothiocyanate (FITC: Sigma), in a concentration of 20 μg/ml at 4° C. for 1 hour, and then washed once with phosphate buffered saline (PBS). Analysis was carried out in PBS containing propidium iodide (PI: Sigma) using a flow cytometer (FACScan: Becton Dickinson). PI-positive cells, namely dead cells, were excluded from the subject of analysis by gating operation. By calculating the mean channel number of FL1 as an index of FITC fluorescence intensity, comparison of the cultured cells and tumor cells of MKN45 was carried out.

T1 sequence (P35579 2-1960 limits assumed): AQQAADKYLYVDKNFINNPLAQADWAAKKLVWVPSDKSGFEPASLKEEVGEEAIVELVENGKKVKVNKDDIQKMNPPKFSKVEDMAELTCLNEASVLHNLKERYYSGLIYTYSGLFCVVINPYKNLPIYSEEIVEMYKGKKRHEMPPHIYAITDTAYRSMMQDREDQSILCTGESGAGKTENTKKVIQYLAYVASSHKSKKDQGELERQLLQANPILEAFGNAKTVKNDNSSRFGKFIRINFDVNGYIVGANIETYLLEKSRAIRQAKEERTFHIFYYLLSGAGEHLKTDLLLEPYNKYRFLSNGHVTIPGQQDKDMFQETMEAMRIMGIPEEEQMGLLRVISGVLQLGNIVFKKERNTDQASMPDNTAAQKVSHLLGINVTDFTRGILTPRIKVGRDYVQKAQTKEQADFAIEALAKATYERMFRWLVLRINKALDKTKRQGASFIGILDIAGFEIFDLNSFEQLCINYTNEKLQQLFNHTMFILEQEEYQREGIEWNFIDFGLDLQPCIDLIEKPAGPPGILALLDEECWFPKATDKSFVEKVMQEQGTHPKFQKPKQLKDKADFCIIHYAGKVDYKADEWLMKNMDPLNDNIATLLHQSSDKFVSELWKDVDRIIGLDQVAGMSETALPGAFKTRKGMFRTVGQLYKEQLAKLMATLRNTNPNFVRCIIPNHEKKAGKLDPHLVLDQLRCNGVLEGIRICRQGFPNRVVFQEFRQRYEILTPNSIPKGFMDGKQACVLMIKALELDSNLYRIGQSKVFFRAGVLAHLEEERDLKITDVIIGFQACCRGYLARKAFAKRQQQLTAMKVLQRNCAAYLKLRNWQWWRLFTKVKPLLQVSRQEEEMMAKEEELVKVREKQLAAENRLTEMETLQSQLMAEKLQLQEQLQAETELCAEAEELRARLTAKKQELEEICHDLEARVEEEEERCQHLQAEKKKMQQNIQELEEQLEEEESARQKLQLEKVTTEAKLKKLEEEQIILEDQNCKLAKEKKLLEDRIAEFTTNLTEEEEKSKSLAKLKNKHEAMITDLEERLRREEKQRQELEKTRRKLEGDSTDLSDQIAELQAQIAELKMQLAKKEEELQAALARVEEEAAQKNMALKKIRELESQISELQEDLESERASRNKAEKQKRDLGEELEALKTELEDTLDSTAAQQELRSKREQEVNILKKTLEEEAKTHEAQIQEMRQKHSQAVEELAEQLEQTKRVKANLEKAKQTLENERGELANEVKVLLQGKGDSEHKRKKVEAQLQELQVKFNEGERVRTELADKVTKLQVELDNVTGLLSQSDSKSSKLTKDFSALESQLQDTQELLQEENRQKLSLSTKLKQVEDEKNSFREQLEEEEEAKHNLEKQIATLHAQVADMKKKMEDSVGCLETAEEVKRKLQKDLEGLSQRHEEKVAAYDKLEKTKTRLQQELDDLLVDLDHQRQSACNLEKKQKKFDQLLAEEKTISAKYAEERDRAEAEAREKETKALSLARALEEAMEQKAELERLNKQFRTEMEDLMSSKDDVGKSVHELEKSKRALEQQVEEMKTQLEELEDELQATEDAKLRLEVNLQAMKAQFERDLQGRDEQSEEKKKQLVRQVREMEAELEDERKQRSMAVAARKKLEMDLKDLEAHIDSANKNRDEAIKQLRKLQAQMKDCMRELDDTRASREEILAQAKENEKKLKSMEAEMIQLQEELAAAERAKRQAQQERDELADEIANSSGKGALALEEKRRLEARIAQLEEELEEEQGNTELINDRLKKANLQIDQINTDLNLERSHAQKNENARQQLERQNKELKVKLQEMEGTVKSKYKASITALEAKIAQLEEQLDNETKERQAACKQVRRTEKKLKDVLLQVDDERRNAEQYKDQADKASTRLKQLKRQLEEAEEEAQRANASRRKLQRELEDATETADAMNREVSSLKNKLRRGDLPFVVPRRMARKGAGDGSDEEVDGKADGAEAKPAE

fold reactivity, tumor cells against cultured cells of MKN45: ~18 times
B1: GAH antibody (human monoclonal antibody disclosed in EP-A-520499) (antibody, V domains shown)
VH: QVQLQESGPGLVKPSQTLSLTCTVSGGSISSCGFYWNWIRQHPGKGLEWIGYIYYSGSTYYNPSLKSRVTISLDTSKSQFSLKLSSLTAADTAVYYCARSTRLRGADYWGQGTMVTVSS
VL: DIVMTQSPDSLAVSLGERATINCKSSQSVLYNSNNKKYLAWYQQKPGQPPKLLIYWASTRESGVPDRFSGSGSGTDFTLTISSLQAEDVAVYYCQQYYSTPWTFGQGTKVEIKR
